Measurements as given in publication PMC4601027, “Structural Analysis of the Pin1-CPEB1 interaction and its potential role in CPEB1 degradation” (Scientific Reports, 2015).

Target: Pin1 WW domain
Assay: ITC titration of unphosphorylated CPEB1 N-terminal fragments with Pin1 WW domain
Assay type: binding
Settings: Pin1 WW domain as titrant, fragment as titrate, titrations could not be efficiently saturated, data not shown
Excerpt: CPEB1 proteins display high sequence conservation in vertebrates (Supplementary Fig.1). To gain insight into the association of Pin1 with CPEB1 in the basal state, we prepared two recombinant fragments named NF1 (88–183) and NF2 (196–293), selected from the N-terminal region of CPEB1 (Fig. 1a). The boundaries of these constructs were chosen to be similar to that used by Nechama et al.[14], and were extended to include Ser210, known to be essential for degradation after phosphorylation by Cdc2[9]. Since target recognition of Pin1 is achieved by the interaction of the WW domain with the protein partners, we prepared an ^15N-labeled WW domain sample and monitored the chemical shift perturbations induced in the WW domain by the presence of the ligands (1:1 WW: ligand ratio) using HSQC experiments (Fig. 1b,c). These experiments reveal that, despite the low affinity associations, residues of the WW domain are clearly affected by the presence of the CPEB 1 fragments. Attempts to saturate the NMR titration using high ligand excess were precluded due to the aggregation tendency of the NF1 and NF2 fragments. […]
ITC measurements were performed using a nano ITC calorimeter (TA Instruments) at 12 °C or 25 °C. […] Protein concentration was measured in a NanoDrop™ 2000 measuring the UV absorption at 280 nm. Peptide concentration was determined by amino acid analysis. […]

binding affinity to Pin1 WW domain	Molecule
high μM up to the mM range	NF2: recombinant unphosphorylated fragment (196–293) of the N-terminal region of CPEB1 Isoform 1 (Uniprot Q9BZB8) (protein, UniProt Q9BZB8 196-293, looked up, fragment) DHLSDLISSLRISPPLPFLSLSGGGPRDPLKMGVGSRMDQEQAALAAVTPSPTSASKRWPGASVWPSWDLLEAPKDPFSIEREARLHRQAAAVNEATC
high μM up to the mM range	NF1: recombinant unphosphorylated fragment (88–183) of the N-terminal region of CPEB1 Isoform 1 (Uniprot Q9BZB8) (protein, UniProt Q9BZB8 88-183, looked up, fragment) GLPDANDLCLGLQSLSLTGWDRPWSTQDSDSSAQSSTHSVLSMLHNPLGNVLGKPPLSFLPLDPLGSDLVDKFPAPSVRGSRLDTRPILDSRSSSP
